# Measurements as given in US6710026B1, “Protein domains in the hepatic glycogen-targetting subunit of protein phosphatase 1 and methods of making and using the same” (Medical Research Counsel, priority 1998, dated 2004).
# Where no end group is shown, it is not given here.
# T1: phosphorylase a (Oryctolagus cuniculus, UniProt P00489)
# T1 sequence (P00489 2-843 limits assumed): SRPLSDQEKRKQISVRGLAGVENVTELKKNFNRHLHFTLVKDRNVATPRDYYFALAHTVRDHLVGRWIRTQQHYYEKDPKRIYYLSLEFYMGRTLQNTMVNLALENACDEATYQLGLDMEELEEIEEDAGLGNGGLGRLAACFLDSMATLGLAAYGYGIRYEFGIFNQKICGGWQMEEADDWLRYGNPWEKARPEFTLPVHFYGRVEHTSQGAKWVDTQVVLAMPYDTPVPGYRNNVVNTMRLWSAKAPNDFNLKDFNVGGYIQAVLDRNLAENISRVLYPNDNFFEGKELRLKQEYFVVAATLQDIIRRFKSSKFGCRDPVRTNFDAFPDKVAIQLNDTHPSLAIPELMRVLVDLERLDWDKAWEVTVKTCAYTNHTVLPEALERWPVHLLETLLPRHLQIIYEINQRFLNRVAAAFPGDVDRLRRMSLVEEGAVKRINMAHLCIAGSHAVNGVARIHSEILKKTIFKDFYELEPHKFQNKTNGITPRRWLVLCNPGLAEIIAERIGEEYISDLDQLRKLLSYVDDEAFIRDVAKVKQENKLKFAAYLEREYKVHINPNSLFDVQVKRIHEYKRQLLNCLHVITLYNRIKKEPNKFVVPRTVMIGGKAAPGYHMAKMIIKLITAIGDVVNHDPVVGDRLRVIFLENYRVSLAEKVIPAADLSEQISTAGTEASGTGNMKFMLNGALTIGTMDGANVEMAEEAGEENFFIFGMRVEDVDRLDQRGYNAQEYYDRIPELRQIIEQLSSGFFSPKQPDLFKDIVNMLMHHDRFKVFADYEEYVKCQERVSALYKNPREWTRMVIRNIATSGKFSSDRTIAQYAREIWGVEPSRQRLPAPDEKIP
# B1: GST-GL: glutathione S-transferase fused to the full-length GL coding region (residues 1-284) of rat liver GL (protein)
# chain: MAVDIEYSYSSMAPSLRRERFTFKISPKLNKPLRPCIQLGSKDEAGRMVAPTVQEKKVKKRVSFADNQGLALTMVKVFSEFDDPLDIPFNITELLDNIVSLTTAESESFVLDFPQPSADYLDFRNRLQTNHVCLENCVLKEKAIAGTVKVQNLAFEKVVKIRMTFDTWKSFTDFPCQYVKDTYAGSDRDTFSFDISLPEKIQSYERMEFAVCYECNGQSYWDSNKGKNYRITRAELRSTQGMTEPYNGPDFGISFDQFGSPRCSFGLFPEWPSYLGYEKLGPYY
# modifications: left off: a dimerising Fc or GST
# notes: glutathione S-transferase fused to the full-length GL coding region (residues 1-284) of rat liver GL
# B2: GST-GL(1-94): GST fused to GL residues 1-94 (protein)
# chain: MAVDIEYSYSSMAPSLRRERFTFKISPKLNKPLRPCIQLGSKDEAGRMVAPTVQEKKVKKRVSFADNQGLALTMVKVFSEFDDPLDIPFNITEL
# modifications: left off: a dimerising Fc or GST
# B3: GST-GL(59-284): GST fused to GL residues 59-284 (protein)
# chain: KKRVSFADNQGLALTMVKVFSEFDDPLDIPFNITELLDNIVSLTTAESESFVLDFPQPSADYLDFRNRLQTNHVCLENCVLKEKAIAGTVKVQNLAFEKVVKIRMTFDTWKSFTDFPCQYVKDTYAGSDRDTFSFDISLPEKIQSYERMEFAVCYECNGQSYWDSNKGKNYRITRAELRSTQGMTEPYNGPDFGISFDQFGSPRCSFGLFPEWPSYLGYEKLGPYY
# modifications: left off: a dimerising Fc or GST
# B4: GST-GL(94-284): GST fused to GL residues 94-284 (protein)
# chain: LLDNIVSLTTAESESFVLDFPQPSADYLDFRNRLQTNHVCLENCVLKEKAIAGTVKVQNLAFEKVVKIRMTFDTWKSFTDFPCQYVKDTYAGSDRDTFSFDISLPEKIQSYERMEFAVCYECNGQSYWDSNKGKNYRITRAELRSTQGMTEPYNGPDFGISFDQFGSPRCSFGLFPEWPSYLGYEKLGPYY
# modifications: left off: a dimerising Fc or GST
# B5: GST-GL(170-284): GST fused to GL residues 170-284 (protein)
# chain: SFTDFPCQYVKDTYAGSDRDTFSFDISLPEKIQSYERMEFAVCYECNGQSYWDSNKGKNYRITRAELRSTQGMTEPYNGPDFGISFDQFGSPRCSFGLFPEWPSYLGYEKLGPYY
# modifications: left off: a dimerising Fc or GST
# B6: GST-GL(134-284): GST fused to GL residues 134-284 (protein)
# chain: LENCVLKEKAIAGTVKVQNLAFEKVVKIRMTFDTWKSFTDFPCQYVKDTYAGSDRDTFSFDISLPEKIQSYERMEFAVCYECNGQSYWDSNKGKNYRITRAELRSTQGMTEPYNGPDFGISFDQFGSPRCSFGLFPEWPSYLGYEKLGPYY
# modifications: left off: a dimerising Fc or GST
# B7: GST-GL(216-284): GST fused to GL residues 216-284 (protein)
# chain: {GST}-NGQSYWDSNKGKNYRITRAELRSTQGMTEPYNGPDFGISFDQFGSPRCSFGLFPEWPSYLGYEKLGPYY
# B8: GST-GL(1-216): GST fused to GL residues 1-216 (protein)
# chain: MAVDIEYSYSSMAPSLRRERFTFKISPKLNKPLRPCIQLGSKDEAGRMVAPTVQEKKVKKRVSFADNQGLALTMVKVFSEFDDPLDIPFNITELLDNIVSLTTAESESFVLDFPQPSADYLDFRNRLQTNHVCLENCVLKEKAIAGTVKVQNLAFEKVVKIRMTFDTWKSFTDFPCQYVKDTYAGSDRDTFSFDISLPEKIQSYERMEFAVCYECN
# modifications: left off: a dimerising Fc or GST
# B9: GST-GL(1-257): GST fused to GL residues 1-257 (protein)
# chain: MAVDIEYSYSSMAPSLRRERFTFKISPKLNKPLRPCIQLGSKDEAGRMVAPTVQEKKVKKRVSFADNQGLALTMVKVFSEFDDPLDIPFNITELLDNIVSLTTAESESFVLDFPQPSADYLDFRNRLQTNHVCLENCVLKEKAIAGTVKVQNLAFEKVVKIRMTFDTWKSFTDFPCQYVKDTYAGSDRDTFSFDISLPEKIQSYERMEFAVCYECNGQSYWDSNKGKNYRITRAELRSTQGMTEPYNGPDFGISFDQ
# modifications: left off: a dimerising Fc or GST
# B10: GST-GL(1-271): GST fused to GL residues 1-271 (protein)
# chain: MAVDIEYSYSSMAPSLRRERFTFKISPKLNKPLRPCIQLGSKDEAGRMVAPTVQEKKVKKRVSFADNQGLALTMVKVFSEFDDPLDIPFNITELLDNIVSLTTAESESFVLDFPQPSADYLDFRNRLQTNHVCLENCVLKEKAIAGTVKVQNLAFEKVVKIRMTFDTWKSFTDFPCQYVKDTYAGSDRDTFSFDISLPEKIQSYERMEFAVCYECNGQSYWDSNKGKNYRITRAELRSTQGMTEPYNGPDFGISFDQFGSPRCSFGLFPEW
# modifications: left off: a dimerising Fc or GST
# System: PP1GL complex
# Assay: not given
# Settings: previous experiments; cited from earlier work
row,Molecule,disruption of the PP1GL complex
1,"M110 1-38: peptide comprising the amino terminal 38 residues of the M110 subunit of the myosin targeting subunit of PP1 (MKMADAKQKRNEQLKRWIGSETDLEPPVVKRQKTKVKF; UniProt O14974 1-38, looked up, fragment)",could disrupt the PP1GL complex
2,"GM 63-93: peptide comprising residues 63-93 of the skeletal muscle glycogen targeting subunit (RVSFADSFGFNLVSVKEFDCWELPSASTTFD; UniProt Q16821 63-93, looked up, fragment)",did not abolish binding of GL to PP1

# Target: PP1γ (Homo sapiens, UniProt P36873)
# Sequence (P36873 whole entry, the tested form may be a part): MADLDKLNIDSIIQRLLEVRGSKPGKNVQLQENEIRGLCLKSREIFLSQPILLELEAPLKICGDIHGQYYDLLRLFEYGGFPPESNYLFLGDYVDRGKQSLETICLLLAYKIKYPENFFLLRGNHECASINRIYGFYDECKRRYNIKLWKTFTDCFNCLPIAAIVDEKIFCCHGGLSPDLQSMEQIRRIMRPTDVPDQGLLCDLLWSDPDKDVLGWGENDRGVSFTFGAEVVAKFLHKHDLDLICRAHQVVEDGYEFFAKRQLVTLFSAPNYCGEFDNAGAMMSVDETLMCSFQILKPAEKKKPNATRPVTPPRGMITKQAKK
# Assay: Blot overlay binding of digoxigenin-labelled PP1γ to GST-GL fusion proteins
# Settings: fusion proteins on nitrocellulose membranes
# Procedure: (§1) GST-GL fusion proteins were separated on SDS-PAGE and transferred to nitrocellulose membranes. They were probed with digoxigenin-PP1γ. Alternatively they were examined for binding of ^32P-labelled phosphorylase a. Non-specific binding to the membranes was blocked by incubation in 5% (w/v) marvel dried milk powder, 25 mM Tris/HCI pH 7.5, 500 mM NaCl for 16 hours. The samples were then probed for 3 h with ^32P-labelled phosphorylase a (100 nM) in 25 mM Tris/HCl pH 7.5, 250 mM NaCl, 1 mg/ml bovine serum albumin. The membranes were subsequently washed (3×30 min) with 25 mM Tris/HCl pH 7.5 before autoradiography.
row,binding of digoxigenin-labelled PP1γ,Molecule
1,not,GST-GL(1-59): GST fused to GL residues 1-59 ({GST}-MAVDIEYSYSSMAPSLRRERFTFKISPKLNKPLRPCIQLGSKDEAGRMVAPTVQEKKVK)
2,binds,B1
3,binds,B2
4,binds,B3
5,not,B4
6,not,B5
7,not,B6

# System: not listed separately
# Assay: Co-sedimentation of GST-GL fusion proteins with hepatic glycogen
# Type: binding, rabbit
# Settings: 100 000×g for 1 h, absence of glycogen
# Procedure: Protein free glycogen was prepared by the following protocol. Glycogen-protein particles were isolated from the livers of New Zealand White rabbits. Protein was then stripped from the glycogen by boiling for 5 min in 1% (w/v) sodium dodecyl sulphate (SDS). The suspension was cooled to room temperature and centrifuged for 60 min at 100,000×g. The 100,000×g pellet was then resuspended in water, and the centrifugation and resuspension procedure repeated a further two times in order to completely remove residual SDS and protein. Any contaminating nucleotides were removed by incubating the glycogen for 15 min with mixed bed resin, AG 501-X8(D). The resin was removed by filtration and the glycogen concentration determined by the phenol/sulphuric acid method.
# Protein free glycogen (10 mg/ml) in 50 mM Tris/HCl pH 7.5, 150 mM NaCl, 0.1% (v/v) 2-mercaptoethanol, 0.02% (w/v) Brij-35, 0.1 mg/ml bovine serum albumin was mixed with GST-GL fusion proteins (50 nM). […] The supernatant and pellet fractions were denatured in SDS, subjected to SDS-polyacrylamide gel electrophoresis and transferred to nitrocellulose. […]
row,Molecule,aggregation (pelleted in the absence of glycogen)
1,B1,strong tendency to aggregate

# Same assay, conditions: protein free glycogen 10 mg/ml, fusion protein 50 nM, 100,000×g, immunoblot of supernatant and pellet
row,Molecule,co-sedimentation with glycogen (binding to glycogen)
1,B4,"detected exclusively in the 100,000×g pellet"

# Target: T1, phosphorylase a
# Assay: Blot overlay binding of 32P-labelled phosphorylase a to GST-GL fusion proteins
# Settings: 100 nM 32P-phosphorylase a, fusion proteins on nitrocellulose membranes
# Procedure: as §1
row,binding of 32P-labelled phosphorylase a,Molecule
1,found to bind,GST-GL(257-284): GST fused to GL residues 257-284 ({GST}-QFGSPRCSFGLFPEWPSYLGYEKLGPYY)
2,found to bind,"GST-GL(269-284): GST fused to GL residues 269-284, the C-terminal 16 amino acids ({GST}-PEWPSYLGYEKLGPYY)"
3,found to bind,B7
4,not,B8
5,found to bind,B1
6,not,B9
7,not,B10

# System: PP1
# Assay: not given
# Settings: recent studies; cited from earlier work
row,Molecule,binding to PP1
1,"GM 63-75: peptide of amino acids 63 to 75 of GM (RVSFADSFGFNLV; UniProt Q16821 63-75, looked up, fragment)",shown to bind PP1
